# Experimental data reported in patent US20120201751A1.
# B1: (hu)ARH460-16-2 variant HV1/KV1 (antibody, V domains shown)
# VH: EVQLVESGGGLVQPGGSLRLSCAASGFDFSRYWMSWVRQAPGKGLVWVGEVNPDSTSINYTPSLKDRFTISRDNAKNTLYLQMNSLRAEDTAVYYCTRPNYYGSRYHYYAMDYWGQGTLVTVSS
# VL: DIQMTQSPSSLSASVGDRVTITCRASQDINNYLNWYQQKPGKAPKLLIYYTSRLHSGVPSRFSGSGSGTDFTFTISSLQPEDIATYYCQQGSTLPFTFGQGTKLEIK
# Columns and labels:
# [1] = target: Recombinant human CD44/Fc (R&D Systems, Minneapolis) (human) (UniProt P16070); test: SPR (Biacore T100), recombinant human CD44/Fc amine-coupled to a CM5 chip, 1:1 interaction model; column head Ka (1/Ms)
# [2] = target: Recombinant human CD44/Fc (R&D Systems, Minneapolis) (human) (UniProt P16070); test: SPR (Biacore T100), recombinant human CD44/Fc amine-coupled to a CM5 chip, 1:1 interaction model; column head Kd (1/s)
# [3] = target: Recombinant human CD44/Fc (R&D Systems, Minneapolis) (human) (UniProt P16070); test: SPR (Biacore T100), rhCD44/Fc amine-coupled to CM5, antibody injected 0.67-667 nM, 1:1 model
binder,measurement,setting,value
B1,kon,[1],35400 M⁻¹ s⁻¹
same,koff,[2],0.000225 s⁻¹
same,Kd,[3],6.32 nM
